T1: chemokine CXCR2 (IL-8Rb), P25025
T1 chain: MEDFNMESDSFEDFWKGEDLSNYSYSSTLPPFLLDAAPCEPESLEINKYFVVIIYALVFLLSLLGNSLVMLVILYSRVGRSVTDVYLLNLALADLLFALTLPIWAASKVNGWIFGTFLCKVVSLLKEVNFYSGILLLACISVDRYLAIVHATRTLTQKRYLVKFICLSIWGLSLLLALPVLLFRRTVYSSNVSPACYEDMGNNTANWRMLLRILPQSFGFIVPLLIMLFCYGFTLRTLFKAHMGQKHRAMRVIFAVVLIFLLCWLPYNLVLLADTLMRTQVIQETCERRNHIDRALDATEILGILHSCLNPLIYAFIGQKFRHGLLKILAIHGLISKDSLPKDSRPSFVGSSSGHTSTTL


How the values were obtained:
[1] = biological target: N-type calcium channel (receptor binding screen of Example 1)
[2] = biological target: T1, chemokine CXCR2 (IL-8Rb), P25025

Molecule	% inhibition [1]	% inhibition [2]
Tat-NR2B9c (peptide)	100%	
YGRKKRRQRRRKLSSIESDV (modifications not checked) [Tat-NR2B9c]		80%
